Data as given in the nanobody polyreactivity screen of Harvey et al. (2022).

Experiment: yeast display, Sf9 membrane polyspecificity reagent, FACS + sequencing; frameworks hold sequencing errors
Outline: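 A nanobody's polyreactivity label depends on the gate it was sorted from. Yeast display cells were stained with 10% biotinylated, detergent-solubilized Sf9 membrane reagent for 1 hour at 4 °C, enriched on streptavidin microbeads and sorted by FACS. The low and high (top ~1%) gates were set on anti-HA fluorescence for expression and streptavidin fluorescence for reagent binding.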

Sequence	polyreactivity (PSR sort gate)
QVQLVESGGGLVQAGGSLRLSSAASGSTIRFNAMGWYRQAPGKERELVAVIRWRGGTTYYADSVKGRFTISRDNAKNTVYLQINSLKPEDSAVYYCNADYWFSYTWHGSYTVGYWGQGTQVTVSS	high polyreactivity
QVQLVESGGGLVQAGGSLRLSSAATGSIFLSNMGWYRQAPGKERELVAAIYRNGGSTYYADSVKGRFTISRDNAKNTVYLQMNSLKPEDTAVYYCAVQRYWGQGTQVTVSS	high polyreactivity
QVQLVESGGGLVQAGGSLRLSSAATGSIIGFYAMGWYRQAPGKERELVAAITRGGGSTFYADSVKGRFTISRDNAKNTVYLQINSLKPEDTAVYYCAATVYRYHGPGYYYWGQGTQVTVSS	high polyreactivity
QVQLVESGGGLVQAGGSLRLSSAGSGRIFGYYAMGGYRQAPGTETELVAAISSNGGSTYYADSVKGRFTISRDNANNTVYLQMNSLQPEDTAVYYCKVYFYSRHYFYRGDYWGQGTQVTVSS	high polyreactivity
QVQLVESGGGLVQAGGSLRLSSAPSGRIFDHYAMGWYRQAHGKERELGAAITRSGGITYYADSVKGRFTISRDNAKNTVYLQMNSLKPEDTAVYYCAALSYRYTDKFDYWGQGTQVTVSS	low polyreactivity
QVQLVESGGGLVQAGGSLRLSSAPSGSTYYVYDMGWYRQAPGKERELVAAITSGGSTNNADSVKGRFTISRDNAKNTVYLEMKSLKPVDTAVYYCAAQGRVWDSYGYEYVQEVTRDYWGQGTQVNVSS	low polyreactivity
QVQLVESGGGLVQAGGSLRLSSDASGFIIANNALGWYRQAPVKERELVAAISRSGGRTYYADSVKGRFTISRDNGKKTVYLQMNSLKTEDTAVYYCVADRTDTSNYWGQGTQVTVSS	high polyreactivity
QVQLVESGGGLVQAGGSLRLSWAASGFGWYAMGWYRQAPGKEREFVAAISRGGGSTYYADSVKGRFTISRDNAKNTVYLQMNSLKPEDTAVYYCAAVYYRRISQGDTQTYYQYNYWGQGTQVTVSS	high polyreactivity
QVQLVESGGGLVQAGGSLRLSWAASGHTFHGYDMGWYRQEPGKERDLVAAITSTGGSTHYSDSVKGRFTISRDNAKNTVYLQMNSLKPEDTAVFFCANRSYGLTRAYSAGNFWGQGTQVTVSS	low polyreactivity
QVQLVESGGGLVQAGGSLRLSWAASGITFYGNAMGWYRAAPGKEREFVAAISTRDGTTYADSVKGRFTISRDNAKNTVYLQRNSLKPEDTAVYYCAAAYYYDGQQGDFAYWGQGTQVTVSS	low polyreactivity
QVQLVESGGGLVQAGGSLRLSWAASGNTFNNNPMGWYRQAPGKERELVAAISGSGGSTYYADSVKGRFTISRDNAKNTVYLQLNSLKPEDTAGYYCAVRLVHGGKRYVYWGQGTQVTVSS	high polyreactivity
QVQLVESGGGLVQAGGSLRLSWAASGPTCGQLAMVWYRQAPGKERELVAAISYSGARTYYADSVKGRFTISRDNAKNTVDLQMNSLIPQDTAVKYCNAYSAYVNGNRRGLGYWGQGTHVTVSS	high polyreactivity
QVQLVESGGGLVQAGGSLRLSWAASGSSFFRNAMGGYSQAPGKERELVASISRSGGSTYYADSVKGRFTISRDNAKNTVYLQMNSLKPEDTAVSYCAKKPNTQTSYWYYYWGQGTQVTVST	high polyreactivity
QVQLVESGGGLVQAGGSLRLSWAASGSTFIGYAMGWYRQAPGKERELVAAISWSGGLTYYADSVKGRFTFSRDNAKNTVYLQMNSLKPEDTAVYYCNTVPYGISVQFNYWGQGTQVTVSS	high polyreactivity
QVQLVESGGGLVQAGGSLRLSWAASGSTFQSYAMGLSRQAPGKERELVAAISFSGGSTYYADSVKGRFTISRDNAKNTVYLQMHSLKPEDTAVYYCAADVAYVEYDYWGQGTQVTVSS	low polyreactivity
QVQLVESGGGLVQAGGSLRLSWAASGSTFRNYAMGWYRQAPGKEREFVAAISRSGGSTYYADSVKGRFTISRDNANNPVYLQMISLKPEETAVYYCNKESFWGPDNYWGQGTQETVSS	high polyreactivity
QVQLVESGGGLVQAGGSLRLSWAAYGRNFRPNTMGWYRQAPGKEREMVAAISRSGGSTYYADSVKARFTISRDNAKNTVYLQMNSLKPEDTAVYYCAKRYGGIVGVGAYKYEYWGQGTQVTVSS	high polyreactivity
QVQLVESGGGLVQAGGSLRLSWATSGFILLDNALGWYRQAPGKESEFVASINISGDRTFYADSVKGRFTISRDNAKNTVYLQMNSLKAEDTAVYYCAKEPGWGRRSTTAYDYWGQGTQVTVSS	low polyreactivity
QVQLVESGGGLVQAGGSLRLTCAASGFIFAYYVMGWYRQAPGKERELVAAITSSDGITYYADSVKGRFTISRDNAKNTVYLQMNSLKPEDTAVYYCNADVYPDVGWRESDYWGQGTQVTVSS	low polyreactivity
QVQLVESGGGLVQAGGSLRLTCAASGFIFGANTRGWYRQAPGKERELVATISWSGGSTYYADSVKGRFTISRDNAKMTVYLQMNSLKPEVTAVYYCAAPGVTYGFRSVYWGQGTQVTVSS	low polyreactivity
QVQLVESGGGLVQAGGSLRLTCAASGFIFPLYTMGWYRQAPGKERELVAAITGSGGSTYYADSVKGRFTISRDNAKNTVYLQMNSLKPEDTAVYYCAKDYTYGMDWGQGTQVTVSS	low polyreactivity
QVQLVESGGGLVQAGGSLRLTCAASGFIFRYYAMGWYRPATGKEMELVAAISRGGSTNYADSVKGRFTISRDNAKYTVYLQMNSLKPEDTAVYYCASRKGRSKQGYYYWGQGTQVTVSS	high polyreactivity

Sequence	polyreactivity (PSR sort gate)
QVQLVESGGGLVQAGGSLRLTCAASGFIFRYYAMGWYRQAPGKERELVAAISRSGGSTYYADSVKGRFTISRDNAKNTVYLQMNSLKPEDTAVYYCAAKDGRSYYDRTPMDYWGQGTQVTVSS	low polyreactivity
QVQLVESGGGLVQAGGSLRLTCAASGFIIKFYDMGWYRQAPGKERELVATITFSSGTTYYADSVKGRFTISRDNAKNTVYLQMNSLKPEDTAVYYCAAYTLPAWPYDGPAGPRYDYWGQGTQVTVSS	low polyreactivity
QVQLVESGGGLVQAGGSLRLTCAASGFILSSNAMGWYRQAPGKERELVAAITRSGGSTYYADSVKGRFTISRDNAKNTVYLEMNSLKPEDTAVYYCNRLYYSGSGASLDYWGQGTQVTVSS	high polyreactivity
QVQLVESGGGLVQAGGSLRLTCAASGFIYPYYAMGWYRQATGKERELVATNTRSGGSTYYADSVKGRFTISLDNAKNNVYLQMNSVKQEDSAVYSCAADIYWYRGYGFWGQGTQVTVSS	high polyreactivity
QVQLVESGGGLVQAGGSLRLTCAASGFTFGTYAMGWYRQAPGKERELVAAITWSGGSTYYADSVKGRFTISRDNAKNTVYLQMNSLKPEDTAVYYCAAESADYNDGDYWGQGTQVTVSS	low polyreactivity
QVQLVESGGGLVQAGGSLRLTCAASGGTFQPNAMGGYRQAPGKERELVAAISWSDGSTYYADSVKGRFTISRDNAKNTVYLQMKSLKPVDTAVYYCAADFTYYDSPYRDYNYESWGQGTQVTVSS	low polyreactivity
QVQLVESGGGLVQAGGSLRLTCAASGGTIFPNAMGWYRQAPGKEMELVATITSSDTTNYADSVKGRFTISRDNAMNTVYLQMNSLKTEDTAVYYCDASFKLRYWDYYYWGQGTQVTVSS	low polyreactivity
QVQLVESGGGLVQAGGSLRLTCAASGGTLDYNAMGWYRQAPGKERELVAPISAGADGTYYADSVKGRFTISRDNAKNTVYLQMNSLKPEDSAVYYCAARPKNNWARTNFGIRYNDWGQGTQVTVSS	high polyreactivity
QVQLVESGGGLVQAGGSLRLTCAASGIIFDKNAMGWYRQAPGKERELVAVITRGGSTYYADSVKGRFTISRDNAKNTVYLQMNSLKPEDTAVYYCAARYTPGFGYWGQGTQVTVSS	high polyreactivity
QVQLVESGGGLVQAGGSLRLTCAASGIIFSGYAMGWYRQAPGTERELVASIRSGSNTYYADSVKGRITISRDNAKYTVYFQMNSLKPEDTGVYYCAADIEYSYFQVFSYNYEYWGQGSQVTVSS	low polyreactivity
QVQLVESGGGLVQAGGSLRLTCAASGIILVAYPMGWYRQAPGKERELVAAITTSGTSTYYADSVKGRFTISRDNAKNTGYVQMNSLKPEDTAVYYCAVRQRYGPARYDYWGQGTQVTVSS	high polyreactivity
QVQLVESGGGLVQAGGSLRLTCAASGIIYYVYAMVWYRQAPGKERELVAAITSGGTTYYADSVKGRFTISRDNAKNTVYLQMNSLKPEDTAVYYCAAARGGGRTYGYWGQGTQVTVSS	high polyreactivity
QVQLVESGGGLVQAGGSLRLTCAASGITFCIYVMGWYRQAPGKEREVVATISRSDDNTYYADSVKGRFTISRDNAKNTVYLQMYCLKPEDTAVYYCAADGVISAWYSSRDDYWGQGTQVTVSS	low polyreactivity
QVQLVESGGGLVQAGGSLRLTCAASGITFDLNAKGWYRQAPGKERELVAAIFRGGSTYYADSVKGRFTISRDNAKNTVYLQMNSLKPEDTAVYYCAAAYYRVGRAYPHEAYDYWGQGTQVTVSS	low polyreactivity
QVQLVESGGGLVQAGGSLRLTCAASGITFKYKAMGWYRQAPGKEWELVAAISKGGGSTYYADSVKGRFTISRDNAKNTVYLQMNSLKPEVTAVYYCNAVPRRPVVSDTNPVGYDYWGEGTQVTVSS	low polyreactivity
QVQLVESGGGLVQAGGSLRLTCAASGLIFVDNAMGWYRQAPGKERELVAAIDSGGSTNYADSVKGRFTISRDNAKNTVYLPMNSLKPEDTAVYYCAAEYVRFYWYTSDYWGQGTQVTVSS	low polyreactivity
QVQLVESGGGLVQAGGSLRLTCAASGLIFYAYAMGWYRPAPWKERELVAAITSGGDTNYADSVKGRFTISRDNAKNTVYLQMNSLKPEDTAVYYCNADPPVFQSVYWRWYHNYDYWGQGTQVTLSS	low polyreactivity
QVQLVESGGGLVQAGGSLRLTCAASGLIFYDNMGWYRQEPGKQRELVAAITVSGGATYYADSVKGRFTISRDNAKNTVYLQMNSLKTEDTAVFYCARELLSPTYQRWYYYWGQGTQVTVSS	low polyreactivity
QVQLVESGGGLVQAGGSLRLTCAASGLTFSYNAMGWYRQAPGKERELVAAITVSGGRTYYADSVKGRFTISRDNAKNTVYLQMNSLKPEDTAVYYCNADYDEGYYGYLRYDYDYWGQGTQVTVSS	high polyreactivity
QVQLVESGGGLVQAGGSLRLTCAASGNIFSTYAMGWYRQAPGKERELVASISENGGSTYYADSVKGRFSISRDNAKTTVYLQMNSLKPEHTAVYYCNKDYYYPNSWPKYVYWGQGTQVTLSS	low polyreactivity
QVQLVESGGGLVQAGGSLRLTCAASGNTFYQYAMGWYRQATGKERELVAAISSSGGSTYYADSVKGRFTISRDNAKNTVYLQMNSLKPEDTAVYYCATDKWYGYYYWGQGTQVTVSS	low polyreactivity
